The text below walks through data of article PMC9333441.

Usually EC50 stands for the concentration giving half of the maximal effect. As usually defined, the Kd is the concentration at which binding is half-saturated.

The target of assay [1] is ACE2 on Vero-E6 cells (African green monkey (endogenous in Vero-E6)). The assay can be described thus: flow cytometry on cells. For orientation: A flow cytometer gives signals particle by particle.
Another assay addresses human ACE2-Fc (human) (UniProt Q9BYF1). Nature of the assay: BLI.

Substance “soluble epitope-tagged RBD of Wuhan-Hu-1 SARS-CoV-2 (domain or fragment)” returned an EC50 in assay [1] of 17.4 nM. The Kd with human ACE2-Fc (human) is 9.3 nM.
